Results on 14 sequences are retold here after the DeepSol protein solubility set.

This data set is described as follows: soluble on expression in E. coli; label from the status in PepcDB or PDB records.
For “MGSDKIHHHHHHMTRILLRNKLDECLAAWQKAGFSVLAPVKRHEMSCFGEVQKSGDMALDLVLTERTIKDQFFPQTEPLIKYRIGKQQIDSETMTPPEKKRVFFGVRPCDASGLAIDDPLFGWDYKDDYWFRRREKSVIVTIACAQADDFCMCTSVKLSPDSTKGADVMLRPLSDGSGWQVEAVSDRGTALVDTVSSLLQESSAEAAPVPQVAEKFDVEKVMEWLADKENFESQFWKDIALRCVGCGSCTFLCPTCHCFDIQDEGDTYQGIRRKNWDSCSFPLFTMHTSGHNPRNTQSTRWRQRIMHKFNYYRGKFGVNSCSGCGRCTRQCPVDMGITETLQAITNLPR”, the “soluble on expression in E. coli” value is given as “not soluble”.

Consider “MGSDKIHHHHHHMWIVLDTNIYFNQWLLEGANFRVFRNFCNNTGATLLLPEVVKQEVQNKYDGELAQARIELDKLAAKFSKLGVECPSNLVVSDDYDFDQLVREQYRNVILVPYSGVAHEQLVEKALAPKLPFREKEKGYRDALMWLSILDYVKESGFKESIHFVNANSKDFYSNKSGGLTLHEDLKDDLRARNMETNIIPYTSLNEFVEGHVLQELHGVDWMDFYSEFNGELDSDVCVEAIAWLDECSLSVLREKLVEANYPGLIMDGVFAASFETWDGVEDSDILAMRKIDEDRYFIDYAFDIRGLEVKLLSSPTSPASGYFGAYIDVEIDNDLATTSFFTRADFKASVVFNITAEVVEDVDVTSFKFRPR”, for which the “soluble on expression in E. coli” value was “not soluble”.

As for “MAHHHHHHMARIISASELEKAADALARGNLVAIPTETVYGLGGNALNKEAVEKIFIVKGRPLTDPLICHVSDVEKAMDLWDVHADPEAVELARVLGTAIWPGPLTIVLRANPLLPNSVTGGSGFVGARIPRHEITLRLLQLVNFPVAAPSANTFGHVSPTTADHVLKDLGPKDSSLLIVDGGPCDIGIESTVVKVNNVESVEILRRGGVTLTEVLRALGDKFHPLITIRDTRLRHLSPEMAMDGPGQLLTHYSPNVPSRLLTPSSFTTNLPMDPEGALVEFSSNSSVAAPTEVLLRHTVIIDFGGKLQCLKPGCLAYRDLSVNAQVREACFAVFDALRWTETIPGAEVVLFPLVSGWPHASVDTDLLAAVEDRLFRAASGKVARIRMQSRSV”, the “soluble on expression in E. coli” value was “not soluble”.

As for “MSLVGGFPHHPVVHHEGYPFAAAAAAAAAAAASRCSHEENPYFHGWLIGHPEMSPPDYSMALSYSPEYASGAAGLDHSHYGGVPPGAGPPGLGGPRPVKRRGTANRKERRRTQSINSAFAELRECIPNVPADTKLSKIKTLRLATSYIAYLMDLLAKDDQNGEAEAFKAEIKKTDVKEEKRKKELNEILKSTVSSNDKKTKGRTGWPQHVWALELKQ”, the “soluble on expression in E. coli” value was “not soluble”.

Regarding “MSLKYQLRFGGEGGQGVITAGEILAEAAIKEGRQAFKASTYTSQVRGGPTKVDIIIDDKEILFPYAVEGEVDFMLSTADKGYKGFRGGVKEGGIIVVEPNLVHPESEDYKKWQIFEIPIITIAKDEVGNVATQSVVALAIAAYMSKCIDLDVLKETMLHMVPAKTRDANAKAFDLGVKYATQAKPHEGHHHHHH”, the “soluble on expression in E. coli” value is on record as “soluble”.

For “MKEKIITYLEEKGKSSVDDLASSLDMAGAQKFPSLIKEISKLESKGKLRFEQDGTISLRKKKEKKDQVTVTGIFRANKAGFGFVSIDEAEEDLFIGRNDVGHAVDGDTVEVAIKKVANRLKGTAAEARVVKIVEHSLKAVVGRFVLDDEKPPYIGYIKSKNQKITQKIYIKKEPIVLDGTEIIKVAIEKYPTRRYDYFVASVEDVIGHQDDVGIDVLEVLESMDIVSEFPDAVLKEAQSVPDAPSEKDLIGRVDLRKEITFTIDGADAKDLDDAVHVKLLDNGNFELGVHIADVSYYVKEGSALDGEALARGTSVYVTDRVVPMLPERLSNGICSLNPNLDRLTQSAIMEIDKHGRVLHYQITQTVINTSFRMTYSDVNAIIAGDKELTEQYDKIVPSIHYMVTLHKILEKMRERRGALNFDTSEAKILVNDKGFPMDIVLRQRGLAERMIESFMLAANECVAEHFAKKNLPFIYRIHEEPKAEKLQKFMDYASIFGVSIQGTASKISQTALQDFMKKIEGQPGSDVLSMMLLRSMQQARYSEYNHGHYGLAAQYYTHFTSPIRRYPDLLVHRLVREYDKANSEKVEHFAQIIPEIASQTSSLERRAIDAERVVEAMKKAEYMEEYVGQEFTGVVSSVVKFGLFVELPNTIEGLIHMTTLPEFYQFNERTLSLQGEKSGKVFRVGQSIKVKVLKADKETGDIDFAYLPSDFDIIEKLSRSKKEKPRPSRRSGDSKTKANKRSKRSALSQKKKKKPFYKEAVKKGGKHGKGSRKRRRSK”, the “soluble on expression in E. coli” value is “soluble”.

For the sequence “MLDPRLSVAPMVDRTDRHFRFLVRQVSLGVRLYTEMTVDQAVLRGNRERLLAFRPEEHPIALQLAGSDPKSLAEAARIGEAFGYDEINLNLGCPSEKAQEGGYGACLLLDLARVREILKAMGEAVRVPVTVKMRLGLEGKETYRGLAQSVEAMAEAGVKVFVVHARSALLALSTKANREIPPLRHDWVHRLKGDFPQLTFVTNGGIRSLEEALFHLKRVDGVMLGRAVYEDPFVLEEADRRVFGLPRRPSRLEVARRMRAYLEEEVLKGTPPWAVLRHMLNLFRGRPKGRLWRRLLSEGRSLQALDRALRLMEEEVGEEGEKEKPGPRGQREAAPGPAREGV”, the “soluble on expression in E. coli” value is “soluble”.

For the sequence “MGVFLFDRDCRYTVAGGGEISSAGLTPADFEGSKPHDLFSEAIADELEHYYREALDGHSHSFEQQYRGKHYRVQTVPVRDDNGEVISGLAVSEDVTARRERQRTLERQNERLREFAGVVSHDLRNPLNVAQGRLKLARAECDSEHLDNVAAAIERSNRLIDDLLTLASSGDEVTETASLDLGAVVDGCWQNVPTDGATLVVRSEQTVVADRGRLEQLLENLVRNAVEHAFPQSEVSLDAAEGDASDLTVTVGALEDGFYVEDTGPGIPPEERDDVFKGGYSTAADGTGFGLRIVRQIAEAHGWTVTVADGEHGGARFEVRGIETT”, the “soluble on expression in E. coli” value is reported as “not soluble”.

Turning to “MAKGVAVLSSSEGVAGTILFTQEGDGPTTVTGNISGLKPGLHGFHVHALGDTTNGCMSTGPHFNPAGKEHGSPEDETRHAGDLGNITVGDDGTACFTIVDKQIPLTGPHSIIGRAVVVHADPDDLGKGGHELSKSTGNAGGRIACGIIGLQG”, the “soluble on expression in E. coli” value is “soluble”.

Take “AIAADSAVRGPPGMGGTSTDNMDSVVQGDRRPGSHKGFVEEMRFVAMRLHTRDQAKEGTLEESALPIQEWQPSQQDYLQFLVDSKHVYDFFENFMNQSQDNMFVNFRRTGLERVSALEEDLDWFRQRGFSIPKPEKPGVAYVEYLQSLVQDKPHALLCHWYNFYFAHTAGGRMIGRLMSKLLFDGHVFEFYKWEGDVKQILDQVRVKIDETARDWPREVKDECLKETGLSFSYSGTILGHLAKRG”: the “soluble on expression in E. coli” value was “soluble”.

Take “MRILVSNDDGIFSPGIKALGLAMRALGEVFVVAPDMEQSAVGHGITVRRPLRFKHTQSAGFGEIPAYRVDGTPADCVVLGVHLLGRPDLVVSGINLGVNLGLDLTHSGTVAAALEGASLGIPSIAFSLDTSGEVLDFQEAARWALAIARAVGERGLPPGVLLNVNFPASRPKGLLVTRLSTHRFEDQVVERLDPEGKPYYWIAGTPAGEEEEGTDLWAVRRGYVSVTPVSLDLTAHGFLEALSGLLEGVAP”: the “soluble on expression in E. coli” value is reported as “soluble”.

As to “MSGIFGVIVSGRTPIEVVPVSDTEFTCEIVNADAINHVVVFLTGAQPFPDGIGGSGDHFQNFPPKKTQFISVYIRWPTQDGGNWHYLGFICNEKPSAIYKVAQLHKSDASHSFSQFDNQMQLYSSGSAQIGINAESLSDITGRQAADGTQASQQVKNLEKNT”, the “soluble on expression in E. coli” value is on record as “soluble”.

Consider “KYIDRAGKLAYDSHIAYHRIKGLSQTVLERVQEAVVVINAEGLAVLFNRKAKDLFPALEIGRRAGLSDSAAELWDQASPHTFEYVLGTPGLNAGIRAVPVNKGSDKLLILYIRPQSEIQAEALSVKLAALGQLTANLAHEIRNPMSAIRHANDLLRENMEAGAADPFNAKLCKIIDGNICRIDKMLEDISSLNKRNKTERETIGLIPFWEEFKQEFLLGHPDAADCIRPDIQGGSPTAYFDPAHLRQIMWNLANNAWRHSRKQPGSISVTIRPAQKNTVCILFADRPKCRNTCSNPFTPRRKTAPASGCMSPANWRTPISAI”, for which the “soluble on expression in E. coli” value is reported as “not soluble”.

With “AHHHHHHASAKWVCKICGYIYDEDAGDPDNGISPGTKFEELPDDWVCPICGAPKSEFEKLEDGSQGYSRRGNMMIILKPLIEVDLPEDFVDIIKAKLKGQTVKSGEIITVDILGKPIEFKVLYAEPSPVKVTQKTQIKFAKGNVFEVSLDFKAKDCIITDAFIVLTGESEVLILNHNFEEIRRIEFENLKKIVVKGDLVVLIGEEKVKILKLQ”, the “soluble on expression in E. coli” value is reported as “soluble”.
